Residue numbers refer to the chain shown, from its start. “Also recorded” adds a separate entry of the source.
B1: #5-3: chicken-mouse chimeric anti-FSTL1 antibody clone; variable regions SEQ ID NO: 767 (light), 769 (heavy) (antibody, V domains shown)
VH: AVTLDESGGGLQTPGGALSLVCKGSGFSFSSFNMFWVRQAPGKGLEWVAGIGKDGVPKYGAAVDGRATISKDNGQSTMRLQLNNLRAEDTGTYFCAKAAGGCSYDWCGIYAGDIDTWGHGTEVIVSS
VL: ASTQPSSVSANPGETVKITCSGGSGYYYGWYQQKSPGSVPVTVIYNNNNRPSDIPSRFSGSKSGSTGTLTITGVRAEDEAVYYCGGYDNSGTGIFGAGTTLTVL
modifications: mouse constant regions
B2: #8-4: chicken-mouse chimeric anti-FSTL1 antibody clone; variable regions SEQ ID NO: 795 (light), 797 (heavy) (antibody, V domains shown)
VH: AVTLDESGGGLQTPGGGLSLVCKGSGFTLSSFNMFWVRQAPGKGLEWVAGVGKDGGTAYGAAVDGRATISRDSGQSTVRLQLNNLRAEDTGTYFCAKAAGGCSYSWCGAYVGDLDAWGHGTEVIVSS
VL: B1 VL with T3S, V39A, N48D, R50K, R75Q, A76V, Y83F
modifications: mouse constant regions
B3: #5-8: chicken-mouse chimeric anti-FSTL1 antibody clone; variable regions SEQ ID NO: 771 (light), 773 (heavy) (antibody, V domains shown)
VH: B1 VH with A17G, S28T, A61T, A111T
VL: ASTQPSSVSANPGEAVKITCSGGSGSYYGWYQQKSPGSAPVTVIYNNNQRPSDIPSRFSGSKSGSTATLTITGVQAEDEAVYFCGGYDSSTGHGGIFGAGTTLTVL
modifications: mouse constant regions
B4: #8-7: chicken-mouse chimeric anti-FSTL1 antibody clone; variable regions SEQ ID NO: 799 (light), 801 (heavy) (antibody, V domains shown)
VH: B1 VH with A17G, S28T, M78L
VL: B3 VL
modifications: mouse constant regions
B5: #5-2: chicken-mouse chimeric anti-FSTL1 antibody clone; variable regions SEQ ID NO: 763 (light), 765 (heavy) (antibody, V domains shown)
VH: B2 VH with L29F, A58G, R71K, S73N, V78L, F94Y, S105G, A109S, L114I
VL: B3 VL
modifications: mouse constant regions
B6: #6-55: chicken-mouse chimeric anti-FSTL1 antibody clone; variable regions SEQ ID NO: 783 (light), 785 (heavy) (antibody, V domains shown)
VH: AVTLDESGGGLQTPGGALSLVCKGSGFTFTSVTMQWVRQAPGKGLEWVASVCSGSSTYYAPAVKGRATISRDNGQSTVRLQLSNLRPEDTGTYYCAKIAGRARWSCTSAAYNIDAWGHGTEVIVSS
VL: ASTQPSSVSAIPGETVKITCSGGGNNYGWYQQRSPGSAPVTVIYYNDNRPSNIPSRFSGSTSGSTSTLTITGVQADDEAIYYCGSWDSNTDSGIFGAGTTLTVL
modifications: mouse constant regions

System: human pancreatic cancer cell line Panc1
Assay: Inhibitory activity against activation of tumor cell by FSTL1, RANKL-/CCR2-positive cells (Examples 5, 7, 9-11)
Format: cell-based
Description: It is known that tumor cells activated by stimulation with FSTL1 highly express molecule groups promoting bone metastasis and increase metastatic invasive capacity (Cancer Research 73: 6185, 2013). Thus, […] cells/well of a human pancreatic cancer cell line Panc1 were suspended in 1 mL/well of D-MEM medium (GIBCO/Thermo Fisher Scientific Inc. Cat. No. C11885500BT) containing 10% fetal bovine serum, supplemented with 50 ng/mL (final concentration) of FSTL1 (R&D Systems, Inc.) and 10 μg/mL of the anti-FSTL1 antibody (#5-2, #5-8, #5-10, #5-43, #6-55, or #7-34) or its isotype mouse IgG (anti-DNP antibody) as a control antibody “Control”, and cultured under stimulation (6-well plate). 3 days thereafter, the number of cells was counted while the cells were stained with a PE-labeled anti-RANKL antibody (eBioscience Cat. No. 12-6619) and a PE-labeled anti-CCR2 antibody (R&D Systems, Inc. Cat. No. FAB151P) in order to examine the expression of markers indicating bone metastatic properties, and the contents of RANKL-positive cells and CCR2-positive cells were analyzed by flow cytometry using FACScan (Becton, Dickinson and Company) to calculate the numbers of cells per culture. […] Therefore, in Examples below, judgment was made with the number of cells as an index.
In the same way as in Example 5, a human pancreatic cancer cell line Panc1 was supplemented with 50 ng/mL (final concentration) of FSTL1 (R&D Systems, Inc.) and 10 μg/mL of the anti-FSTL1 antibody (the same clones as in Example 6) or a control antibody and cultured under stimulation.
3 days thereafter, the number of cells was counted while the cells were stained with a PE-labeled anti-RANKL antibody and a PE-labeled anti-CCR2 antibody, and the contents of RANKL-positive cells and CCR2-positive cells were analyzed by flow cytometry using FACScan (Becton, Dickinson and Company) to calculate the numbers of cells per culture (FIG. 5B).
(§1) In the same way as in Example 5, a human pancreatic cancer cell line Panc1 was supplemented with 20 ng/mL (final concentration) of FSTL1 and 10 μg/mL of the anti-FSTL1 antibody (#5-2, #5-8, or #6-55) or a control antibody and cultured under stimulation. 3 days thereafter, the number of cells was counted while the cells were stained with a PE-labeled anti-RANKL antibody and a PE-labeled anti-CCR2 antibody, and the contents of RANKL-positive cells and CCR2-positive cells were analyzed by flow cytometry using FACScan (Becton, Dickinson and Company) to calculate the numbers of cells per culture (FIG. 6B).
as §1, with “50” for “20”, “#5-3, #6-55, #7-34, #8-1, #8-4, #8-7,” for “#5-8,”, “#8-8)” for “#6-55)”, “culture.” for “culture (FIG. 6B).”
as §1, with “50” for “20”, “(#6-55)” for “(#5-2, #5-8, or #6-55)”, “culture.” for “culture (FIG. 6B).”
It is known that tumor cells activated by stimulation with FSTL1 highly express molecule groups promoting bone metastasis and increase metastatic invasive capacity (Cancer Research 73: 6185, 2013). […]

[1] = Example 7, FIG. 5B/35B, FSTL1 50 ng/mL, antibody 10 μg/mL, 3 days
[2] = Example 10, FIG. 6C/36C, FSTL1 50 ng/mL, antibody 10 μg/mL, 3 days
[3] = Example 9, FIG. 6B/36B, FSTL1 20 ng/mL, antibody 10 μg/mL, 3 days

Molecule	inhibitory activity against the expansion of RANKL-positive cells and CCR2-positive cells [1]	inhibitory activity against the expansion of RANKL-positive cells and CCR2-positive cells [2]	inhibitory activity against the expansion of RANKL-positive cells and CCR2-positive cells [3]	also measured
B1	higher inhibitory activity			
B2		high inhibitory activity; also recorded: higher inhibitory activity		
B3	higher inhibitory activity		exhibited inhibitory activity against the expansion of RANKL-positive cells and CCR2-positive cells; also recorded: higher inhibitory activity	
B4		high inhibitory activity; also recorded: higher inhibitory activity		
B5		high inhibitory activity; also recorded: higher inhibitory activity		
B6		high inhibitory activity; also recorded: higher inhibitory activity	exhibited inhibitory activity against the expansion of RANKL-positive cells and CCR2-positive cells; also recorded: higher inhibitory activity	dose dependence of the antibody (Example 11, FIG. 6D/36D, 5, 10, 20 μg/mL): the dose dependence of antibody was not confirmed; also recorded: the dose dependence of the antibody was not confirmed; inhibitory activity against the expansion of RANKL-positive cells and CCR2-positive cells (Example 11, FIG. 6D/36D, FSTL1 50 ng/mL, at all tested doses 5, 10 and 20 μg/mL): ~100%; inhibition of cell induction of RANKL-positive cells and CCR2-positive cells (Example 11, FIG. 6D/36D, dose dependence test): exhibited inhibitory activity; also recorded: strongly inhibited the cell induction of both RANKL-positive cells and CCR2-positive cells at the same time

— patent US20180021429A1, “ANTICANCER AGENTS OR ANTIMETASTATIC AGENTS USING FSTL1 AND COMBINATION DRUG THEREOF” (PHARMA FOODS INTERNATIONAL CO., LTD., priority 2015, published 2018)
